The values that follow come from US20250340881A1, “PHARMACEUTICAL COMPOSITION FOR TREATING CANCER COMPRISING FOXM1 MUTANT OR FOXM1 SHRNA” (Industry-University Cooperation Foundation Hanyang …, priority 2022, published 2025).

Where a chain is given by its changes, count along the chain named. Names may count otherwise.

The subject of assay [1] is A549 lung cancer cells. Description: Wound healing assay of A549 cells expressing FoxM1 phosphorylated point mutants. It is filed as cell-based. Particulars: distance in the control group at 72 h set to 0%. The method, then:
To observe the effects of phosphorylation point mutations on the motility of cancer cells, a wound healing assay was performed in lung cancer cells A549 expressing FoxM1 wild type (WT), phosphorylated point mutants S25E, S361E, and S715E, and a simultaneous triple-point mutation EEE protein.
Specifically, cells expressing the gene of FoxM1 point mutant by the lentivirus system were seeded into 6-well plates at 1×10^5 cells/well each. 24 hours after cell seeding, scratches were made at regular intervals using a 200 μl-pipette tip. In addition, A549 cells treated with mock as a negative control (Mock) and 5 ng/ml of TGF-β as a positive control were used. […] In addition, the distance in the control group at 72 h was set to 0%, and the relative distance was represented as a bar graph (FIG. 4G).

Assay [2] has as its system THP-1 cells. As to the kind of experiment: M1 and M2 marker mRNA in THP-1 cells co-cultured with FoxM1-expressing A549 cells. The assay is classed as cell-based, human. Particulars: co-culture 48 h. The text has this:
In the animal tissues, it was confirmed that both PD-L1 protein expression and CD274 mRNA expression were increased in cancer cells expressing FoxM1 (FIG. 5D, 5E). […] From the results described above, we investigated whether FoxM1 phosphorylated point mutant (S25E) affects the polarization of macrophages in the tumor microenvironment. After co-culturing human monocyte THP-1 cells and the cell groups over-expressing FoxM1 point mutants, M1 and M2 markers were examined in THP-1 cells.
Next, an expression suppression system for suppressing FoxM1 expression was established to observe whether the FoxM1 phosphorylated point mutant (S25E) directly affects polarization to M2 macrophages. First, to inhibit the expression of mRNA of FoxM1, a pLKO-puro.1-hFoxM1 plasmid was produced using a pLKO-puro.1 vector to construct shRNAs targeting nucleotide sequences at 709-729 positions in the human FoxM1 mRNA sequence. The following sequences can be used as target sequences for human FoxM1 shRNA production, and oligonucleotides with the following sequences can be used as primers for shRNA production. The gene accession number for human FoxM1 mRNA in PubMed is NM_001243088.2, and it contains 3507 bp. The following primers were used for shRNA production: 5′-ccgg-[…]-ctcgag-[…]-tttttg-3′ (forward primer) and 5′-aattcaaaaa-AGCAAG AGATGGAGGAAAAGG-ctcgag-[…]-3′ (reverse primer). Then, after purifying and concentrating each lentivirus for expression of the produced FoxM1 shRNA, it was constructed by infecting a lung cancer cell line, A549 cells expressing FoxM1, with the virus. The mRNA expression of M2 markers, CD163, CD206, and VEGFA, was examined after co-culturing lung cancer cells (4×10^4 cells/ml) with suppressed FoxM1 expression and THP-1 cells (1.2×10^5 cells/ml) for 48 h. […] When co-culturing with cancer cells expressing the FoxM1 variant S25E, it was confirmed that the M2 markers CD163, CD206, and VEGFA were all increased by 2 folds or more in THP1 cells compared to the control group (Mock_shCtrl) (FIG. 6D).
After co-culturing the FoxM1 WT protein over-expressed cancer cells (4×10^4 cells/ml) and THP-1 cells (1.2×10^5 cells/ml) for 48 h, the mRNA expression of M1 markers INOS and IL12B was not altered, while the mRNA expression of all the M2 markers IL10, CD163, CD206, TGFB1, and VEGFA was increased in the FoxM1 WT (FIG. 13A). Among them, CD206, TGFB1, and VEGFA had been known as markers for M2d-tumor-associated macrophages (M2d-TAM) (JAYASINGAM, Sharmilla Devi, et al., Frontiers in Oncology (2020) 9: 1512.).

Assay [3] relates to A549 cells. As to the kind of experiment: ELISA of TGFB1 and VEGFA proteins in A549 culture medium. It is filed as cell-based. Particulars: medium cultured 48 h. The procedure: (§1) In addition, after co-culturing of human monocyte THP-1 cells and cell groups over-expressing FoxM1 point mutations for 48 hours under the conditions where the previous experiments were performed, the mRNA expression levels of M2d-inducing factors IL4, IL6, IL10, and VEGFA in A549 cells expressing FoxM1 S25E were analyzed. […] The amounts of TGFB1 and VEGFA proteins in the medium cultured for 48 h with A549 cells (4×10^4 cells/ml) expressing FoxM1 variants were measured by ELISA.
A general note: ELISA stands for enzyme-linked immunosorbent assay.

Assay [4] deals with A549 cells. Description: M2d-inducing factor mRNA in A549 cells after co-culture with THP-1 cells. Particulars: co-culture with THP-1 48 hours. The assay is classed as cell-based. The method, then:
as §1

The subject of assay [5] is lung tissues. Description: EMT marker and PD-L1 protein levels in lysed lung tissue of injected mice. The assay is classed as in vivo. The method, then:
Next, when the lung tissues were lysed and the protein levels of epithelial-mesenchymal transition markers were measured, the protein levels of the mesenchymal marker N-cadherin increased in the FoxM1 phosphorylated point mutant experimental group, while the levels of E-cadherin decreased. In addition, the expression of PD-L1, which was known to be involved in immune evasion and to enhance the tumorigenic potential of cancer cells, was also examined in each experimental group. […] Moreover, the consistent results were confirmed not only at the protein levels but also at the mRNA levels (FIG. 5E).

The test system of assay [6] is A549 cells. Description: IL6, IL1A and CD274 mRNA in A549 cells co-cultured with Jurkat cells. Particulars: co-culture with Jurkat 48 h. The assay is classed as cell-based.
The subject of assay [7] is THP-1 monocytes. As to the kind of experiment: PD-1 (CD279) mRNA in THP-1 monocytes co-cultured with A549 cells. It is filed as cell-based, human. Particulars: co-culture. The method, then:
To examine the mRNA expression levels of PD-1 and PD-L1, which are involved in solid tumor immune evasion, in THP-1 cells and the cells expressing the FoxM1 phosphorylated point mutant, the expression of PD-1 (CD279) mRNA, an immune evasion factor, was measured by qRT-PCR in THP-1 monocytes co-cultured with A549^S25E cells for 48 h (FIG. 7B). It was observed that the expression of mRNA of PD-L1 (CD274), an immune evasion factor, increased by 2 folds in the A549^S25E cells expressing the phosphorylated point mutant compared to the control group.

B1: S25E: FoxM1 phosphorylated point mutant of the S25 residue, expressed by lentivirus in A549 cells (protein, listed as Homo sapiens)
chain: MKTSPRRPLILKRRRLPLPVQNAPEETSEEEPKRSPAQQESNQAEASKEVAESNSCKFPAGIKIINHPTMPNTQVVAIPNNANIHSIITALTAKGKESGSSGPNKFILISCGGAPTQPPGLRPQTQTSYDAKRTEVTLETLGPKPAARDVNLPRPPGALCEQKRETCDGEAAGCTINNSLSNIQWLRKMSSDGLGSRSIKQEMEEKENCHLEQRQVKVEEPSRPSASWQNSVSERPPYSYMAMIQFAINSTERKRMTLKDIYTWIEDHFPYFKHIAKPGWKNSIRHNLSLHDMFVRETSANGKVSFWTIHPSANRYLTLDQVFKQQQKRPNPELRRNMTIKTELPLGARRKMKPLLPRVSSYLVPIQFPVNQSLVLQPSVKVPLPLAASLMSSELARHSKRVRIAPKVLLAEEGIAPLSSAGPGKEEKLLFGEGFSPLLPVQTIKEEEIQPGEEMPHLARPIKVESPPLEEWPSPAPSFKEESSHSWEDSSQSPTPRPKKSYSGLRSPTRCVSEMLVIQHRERRERSRSRRKQHLLPPCVDEPELLFSEGPSTSRWAAELPFPADSSDPASQLSYSQEVGGPFKTPIKETLPISSTPSKSVLPRTPESWRLTPPAKVGGLDFSPVQTSQGASDPLPDPLGLMDLSTTPLQSAPPLESPQRLLSSEPLDLISVPFGNSSPSDIDVPKPGSPEPQVSGLAANRSLTEGLVLDTMNDSLSKILLDISFPGLDEDPLGPDNINWSQFIPELQ
Consider B1, for which the “relative healing distance (motility) at 72 h” value in assay [1] came out at 43%. Further, in assay [2], the “M2 markers CD163, CD206 and VEGFA in THP1 cells compared to Mock_shCtrl” value is on record as no less than 2 folds; the “mRNA expression of M1 markers INOS and IL12B in THP-1 cells” value is listed as “did not change”; the “mRNA expression of M2 markers IL10, CD163, Cd206, TGFB1 and VEGFA in THP-1 cells” value is recorded as no less than 2 folds. In assay [3], the “amount of TGFB1 protein in medium, compared to Mock” value is on record as 5 folds and the “amount of VEGFA protein in medium, compared to Mock” value was 4 folds. For the same molecule, in assay [4], the “mRNA expression level of IL4 in A549 cells” value is given as 1.8 folds, the “mRNA expression level of IL6 in A549 cells” value stood at 1.8 folds, the “mRNA expression level of IL10 in A549 cells” value was 2.2 folds and the “mRNA expression level of VEGFA in A549 cells” value was 2.5 folds. Besides, the “mRNA expression level, fifth value printed (factor not named)” value in assay [4] is on record as 2.5 folds. In assay [5], the “expression of PD-L1 in lung tissue” value is given as “elevated”, the “protein level of E-cadherin in lung tissue” value is on record as “decreased” and the “protein level of N-cadherin in lung tissue” value is “increased”. In assay [6], the “expression of IL6, ILIA and CD274 in A549 cells (in words)” value was “significantly low expression”; the “mRNA expression of CD274 in A549 cells” value turned out to be 5 folds; the “mRNA expression of IL6 in A549 cells” value turned out to be 3.5 folds; the “mRNA expression of ILIA in A549 cells” value is listed as 4.5 folds.

B2: S25A: FoxM1 protein with Ser25 substituted with alanine, non-phosphorylated point mutant, expressed by lentivirus in A549 cells (protein)
chain: B1 chain with E25A
modifications: left off: a dimerising Fc or GST
notes: FoxM1 protein with Ser25 substituted with alanine, non-phosphorylated point mutant, expressed by lentivirus in A549 cells
Turning to B2, the “expression of PD-1 mRNA (CD279) in THP-1 monocytes” value in assay [7] is “highest”.
